Measured values as given in the supplement of paper PMC9170038.

System: MS2 coat protein
Assay: apparent KD of MS2 coat protein; higher = weaker reporter binding
Conditions: Eterna round: R107
Description: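 RNA-MaP round R107: designed RNA switches with theophylline, tryptophan, arginine or FMN aptamers are transcribed on-chip within common flanks. They are titrated with SNAP-549-labelled MS2 coat protein in RNA-MaP buffer (100 mM Tris pH 7.5, 80 mM KCl, 4 mM MgCl2), without ligand or with the indicated ligand. Median apparent KD per design.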

[1] = input ligand: theophylline 20 uM
[2] = input ligand: theophylline 2 mM
[3] = input ligand: tryptophan 2.4 mM

| Sequence | apparent KD of MS2 coat protein (input ligand: arginine 13.2 mM) [nM] | apparent KD of MS2 coat protein (input ligand: none) [nM] | apparent KD of MS2 coat protein [1] [nM] | apparent KD of MS2 coat protein [2] [nM] | apparent KD of MS2 coat protein [3] [nM] |
| --- | --- | --- | --- | --- | --- |
| AGAGUCUAGUCGGCCGCCACUCAUGUCCAAAGGACAUGAGGAUCACCCAUGUACCUAAGGUACAUGAGGACCGGGACUGGACUCA [Omei Tryp B SS C v5] | 13.1 | 24.4 | 131 | 336 | 7.92 |
| AGAGUUAGACAAAAGUCUAGCUCACCAGAAGGAGCGUCCGAAAGGACAGGUAGGUCGCUGGUACGUGAGGAUCACCCACGUUCCU [ArgAS 18 #OpenEnded #AlternativeMS2] | 21.6 | 24.6 | 26.3 | 28.4 | 23.1 |
| AGAUAACAUGGUUUAAUAAGAUAAACUGAUACCAGUGUAUAUAAUCACCCUUGGCAGCAGCAACAUGAGGAUCACCCAUGUAAUA [JR_SSTheophyA_Sub014] | 14.9 | – | 19.6 | – | 20.6 |
| AGAUGUAGCGGAAGGAGCGUCAUGAGGAUCACCCAUGACUCCCGUUGUGGGAGUUCCUUAGGUCAGGUAGGUCGCCGUUACGUCA [Omei Arg B SS B v5] | 91.4 | 390 | 563 | 596 | 426 |
| AGCACAUGAGGAUCACCCAUGUGAGGUGAUACCAGUGAGAAGAAGCACCCUUGGCAGCACUUGGGUACAUGAGGAUCACCCAUGU [Exclusion Theophylline A GF9] | 47.4 | – | 77.8 | – | 54.7 |
| AGCACAUGAGGAUCACCCAUGUGUGGGUACCGAGGACCGGUACGGCCGCCACUCGCAGGACAUGAGGAUCACCCAUGUGCCGCCG [SSTA DOUBLE!!! :-D #7] | 19.7 | 30.5 | 33.2 | 41.2 | 43.4 |
| AGCAUGUUAGCAGAUACCAGACGUUUUAUGAUCCAUGUAACAUGAGGAUCACCCAUGUAAGUCCCUUGGCAGCUGAAAUAAUGCA [JR_SSTheophyB_Sub011] | 75.7 | – | 187 | – | 127 |
| AGCAUUGUAACAGAUACCAGACUUUUAAUGCCUCUAAUAACAUGAGGAUCACCCAUGUAUGUCCCUUGGCAGCUGUUAUGAUGCA [JR_ExcTheophyB_Sub008] | 68.1 | – | 171 | – | 112 |
| AGCCCUGUACUAGAUACCAGCUACAUGAGGAUCACCCAUGUGCGUCAAGACUGACUGUGUAGCCCUUGGCAGCUGCUCGCAUGUA [Exclusion - Theophylline B (Freestyle 2)] | 19.7 | – | 29.9 | – | 20.9 |
| AGCCUAUUACAUGAGGAUCACCCAUGUGAUACCAGUCAGGAAACUGACCCUUGGCAGCGCAUGAGGAUCACCCAUGCGCUAGGCA [Omei Theo A Exc A v5] | 9.15 | – | 12.3 | – | 10 |
| AGCGACAUGCGUGAUACCAGCUACAUGAGGAUCACCCAUGUACGUCAGAAAUGACUGUGUAGCCCUUGGCAGCAUAAUGCAUGUC [Exclusion - Theophylline B (Freestyle 19)] | 38.3 | – | 60.6 | – | 44 |
| AGCGACAUGCGUGAUACCAGCUACAUGAGGAUCACCCAUGUCAGCAGGAAACUGCUGUGUAGCCCUUGGCAGCACAGUGCAUGUC [Exclusion - Theophylline B (Freestyle 28)] | 12.9 | – | 18.1 | – | 13.8 |
| AGCGCAGGUCCUGAUACCAGUGACAUGAGGAUCACCCAUGUCCGAUGGGCCUGCCUCUGACACCCUUGGCAGCAGGGCUUGUGCU [#14 Exclusion-TheophyllineB] | 20 | – | 49.8 | – | 21.3 |
| AGCUACUCGUUCCUCAUGUACGAGUGGCAACGAGGACCGGUACGGCCGCCACUCGAAUAAACAUGAGGAUCACCCAUGUACAAAU [T''-M-T'-T-MS2 - Design 8] | 42.9 | – | 168 | 179 | – |
| AGGACGGUCGGAAGGAGCGGUACAUGAGGAUCACCCAUGUACUUCUGGGCAUCCGUAGAGUGCCAGGUAGGUCGCCGAUUGCGGG [XArg-B10] | 16.4 | 9.36 | 17.5 | 10.6 | 12.9 |
